Measured values from PMC5052618, “Activation of Xer-recombination at dif: structural basis of the FtsKγ–XerD interaction” (Scientific Reports, 2016).

Target: T1, C-terminal domain of XerD (XerDC), as part of the XerDC-FtsKγ fusion protein (E. coli, UniProt P0A8P8 111-298)
T1 construct: XerD tyrosine recombinase, E. coli, residues 111 to 298 (C-terminal, catalytic domain); also called XerD C-terminal domain; XerD portion of XerDC–γ; source: overproduced from pBad24, purified (Ni2+ resin, HiTrap heparin HP, HiTrap Q HP)
T1 sequence (looked up): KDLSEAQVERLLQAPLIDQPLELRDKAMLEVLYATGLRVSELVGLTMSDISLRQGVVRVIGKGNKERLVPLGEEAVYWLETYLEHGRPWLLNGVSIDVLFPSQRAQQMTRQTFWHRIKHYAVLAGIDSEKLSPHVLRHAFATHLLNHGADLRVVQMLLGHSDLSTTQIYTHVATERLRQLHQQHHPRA
Experiment: crystal structure; XerDC (XerD 111-298) and FtsKγ (FtsK 1261-1329) joined on one chain by a 16 amino acid linker; hanging drop, 100 mM Bicine (pH9), 10% (w/v) polyethylene glycol 8000; molecular replacement, 2.3 Å
Conditions: both partners purified

binding result: binds
B1: FtsKγ domain, as part of the XerDC-FtsKγ fusion protein (domain or fragment, E. coli, UniProt P46889 1261-1329, looked up)
chain: GAEELDPLFDQAVQFVTEKRKASISGVQRQFRIGYNRAARIIEQMEAQGIVSEQGHNGNREVLAPPPFD
notes: FtsK DNA translocase, E. coli, residues 1261 to 1329 (γ domain, very C-terminus); In the functional rows with m4 it is the γ portion of the full length XerD-FtsKγ fusion, from which the crystallised fusion was amplified; also called γ domain of FtsK; source: overproduced from pBad24, purified (Ni2+ resin, HiTrap heparin HP, HiTrap Q HP)
